From patent publication US20260078416A1, “ORTHOGONAL METABOLIC FRAMEWORK FOR ONE-CARBON UTILIZATION” (Mojia Biotech Pte. Ltd., priority 2021, published 2026)

B1: JGI20: HACS variant; GenBank PWB41796.1 (protein)
chain: MGQITGAQIVARALKQQGVEYMFGIVGIPVIPIAMFAQREGIKFYGFRNEQSASYAAAAVGYLTGRPGVCLGVSGPGMIHGVAGMANAWSNCWPMILIGGANDSYQNGQGAFQEAPQIEAARPFAKYCARPDSLARLPFYVEQAVRTSIYGRPGAVYLDLPGDIITGAMEEEDVHFPPRCPDAPRMMAPQESIDAAMAALKSAERPLVIVGKGAAYSRAENEVREFLETTQLPYLASPMGKGVMPDDHPLSIAPARSAALLGADVILLMGARLNWMMHFGHPPRFDPKVRVIQMDISAEEIGTNVPTEVALVGDAKAITTQLNASLKQQPWQYPSETTWWTGLRKKIDENGATVAEMMADESVPMSYYRVYREIRDLIPNDAIIQNEGASTMDIGRTLMPNFLPRHRLDAGSFGTMGVGLGQAIAAAAVHPDKHVFCIEGDSAFGFSGMEVETAARYGMKNITFIIINNNGIGGGPDTLDPTRVPPSAYTPNAHYEKMAEIYGGKGYFVTEPSQLRPALEEAIKADKPAIVNIMISATSQRKPQQFAWLTR
B2: JGI15: HACS variant; GenBank HAK63664.1 (protein)
chain: MAKSEGKVNGATLMARALQQQGVQYMFGIVGFPVIPIAIAAQREGITYIGMRNEQSASYAAQAASYLTGRPQACLVVSGPGVVHALAGLANAQVNCWPMLLIGGASAIEQNGMGAFQEERQVLLASPLCKYAHQVERPERIPYYVEQAVRSALFGRPGAAYLDMPDDVILGEVEEAAVRPAATVGEPPRSLAPQENIEAALDALQSAKRPLVIVGKGMAWSRAENEVRQFIERTRLPFLATPMGKGVMPDDHPLSVGGARSHALQEADLVFLLGARFNWILHFGLPPRYSKDVRVIQLDLSAEEIGNNRQAEVALVGDGKAIVGQLNQALSSRQWFYPAETPWREAIAAKIAGNQAAVAPMIADNTSPMNYYRVYRDIAARLPRNAIIVGEGANTMDIGRTQMPNFEPRSRLDAGSYGTMGIGLGFAVAAAAVHPGRPVIAVQGDSAFGFSGMEFETAARYGMPIKVIILNNGGIGMGSPAPRDGQPGMPHALSHDARYERIAEAFGGAGFYVTDSAELGPALDAAMAFKGPAIVNIKIAATADRKPQQFNWHG

Columns and labels:
[1] = In vitro kinetic assay of purified HACS variants; substrate acetaldehyde; type: biochemical; conditions: for Km: read-out: Km, app
Method: The kinetic assay was performed with a coupled reaction providing formyl-CoA from formate catalyzed by CoA transferase CaAbfT using acetyl-CoA as a CoA donor.
In vitro kinetic assay was comprised of 100 mM KPi pH 6.9, 10 mM MgCl2, 0.15 mM TPP, 2 mM acetyl-CoA, 1 μM CaAbfT, 0.25 μM HACS variants, and 20 mM sodium formate. Reactions were incubated at room temperature for 3 min to convert formate to formyl-CoA, and then specific concentration of aldehyde (specifically acetaldehyde or propionaldehyde here) was added to the reaction. After incubating another 3 min, 1/20 of the reaction volume of 10 M NaOH solution was added to terminate the reactions. After 30 min hydrolysis, 1/20 of the reaction volume of 10 N H2SO4 was added to neutralize the pH. Samples were centrifuged at 20817×g for 15 minutes and the supernatant analyzed by GC-MS as described below.
For this analysis, 0.15 of the reaction volume of internal standard methyl succinate was added to the samples. The resulting sample was extracted into 4 mL ethyl acetate by vigorous vortexing for 20 min. The organic phase was separated and evaporated to dryness under a stream of nitrogen. The residue was dissolved in 30 μL pyridine and 30 μL N,O-Bis(trimethylsilyl)trifluoroacetamide (BSTFA) and incubated at 60° C. for 15 minutes. Compound identification and analysis was performed by GC-MS using an Agilent 7890B Series Custom Gas Chromatography system equipped with a 5977B Inert Plus Mass Selective Detector Turbo EI Bundle (for identification) and an Agilent HP-5-ms capillary column (0.25 mm internal diameter, 0.25 μm film thickness, 30 m length). Samples were analyzed by GC (1 μL injection with a 20:1 split ratio) using helium as the carrier gas at a flowrate of 1.5 mL/min and the following temperature profile: initial 90° C. for 3 min; ramp at 15° C./min to 170° C.; ramp at 20° C./min to 300° C. and hold for 8 min. The injector and detector temperature were 250° C. and 350° C., respectively.
As hypothesized from Example 3 (FIG. 22B), JGI15 had lower Km with lower kcat with respect to formaldehyde in comparison with JGI20 (Table 8). With longer chain aldehydes JGI15 and JGI20 has lower Km (sub millimolar) to acetaldehyde and propionaldehyde compared to JGI23 and JGI24, while also lower Kcat as well. Which indicates they have stronger affinity to the aldehyde and lower enzymatic activity. JGI23 and JGI24 are promising as they have better activity (higher Kcat) which have a good potential to work better in vivo by improve their affinity to substrates (lower Km). Similarly, AcHACL as lower Km with acetone while JGI15 as better Kcat (Table 8).

[2] = system: glycolate production from formaldehyde; test: High throughput resting-cell screening of first round HACS variants co-expressed with LmACR; type: cell-based, E. coli; conditions: 5 mM formaldehyde, 3 hours
Description: We used glycolic acid (glycolate) productivity per cell density (uM glycolate/OD600) as indicator of HACS activity. Glycolate can be produced from formaldehyde as sole carbon source in the presence of active HACS variant and acyl-CoA reductase from Listeria monocytogenes (LmACR) (FIG. 20A). LmACR is shown to be capable of catalyzing oxidation reaction from formaldehyde to formyl-CoA (Chou, A., et al. Nat. Chem. Biol. 15:900-906 (2019)). HACS condenses formaldehyde and formyl-CoA to form glycolyl-CoA, which can then be hydrolyzed to glycolate via native thioesterase activities (FIG. 20A).
To prototype glycolate production pathway from formaldehyde in vivo, we constructed vectors overexpress various HACS candidates and LmACR, with both under control of the IPTG-inducible T7 promoter in pCDFDuet-1 and pETDuet-1, respectively (FIG. 20C). […]
Cells from the above pre-cultures were then centrifuged (4000 rpm, 22° C.), washed with the above minimal media without any carbon source, and resuspended with 1 mL of above minimal media containing indicated amounts of carbon source. […] After incubation at 30° C. for 3 hours, the cells were pelleted by centrifugation and the supernatant analyzed by HPLC or GC-MS as described below. […] The soluble cell lysates obtained from the supernatant were analyzed using SDS-PAGE. […]

[3] = system: 2HIB production from acetone and formate; test: HACS screening with acetone and formate (2HIB production); type: cell-based, E. coli; conditions: 100 mM acetone and 20 mM formate, CaAbfT
Method: The HACS variants are tested using the high throughput screening platform as described in EXAMPLE 3 pathway 2 by co-feeding 100 mM acetone and 20 mM formate with formate activation enzyme CaAbfT (FIG. 37A).

Molecule | Kcat, app [1] [s⁻¹] | Km [1] [µM] | glycolate productivity and relative HACS expression compared with RuHACL [2] | performance in 2HIB production [3] | performance in 2HIB production ([3]; listed as JG115)
B1 | 39.44 ± 3.95 | 930 ± 150 | better glycolate productivity and relative HACS expression than the starting reference | better performance than other HACLs | –
B2 | 22.50 ± 1.93 | 290 ± 20 | better glycolate productivity and relative HACS expression than the starting reference | best performance | better performance than other HACLs
